{
  "source": "ChEMBL document CHEMBL2074368",
  "about": "“Kinetic analysis of calcein and calcein-acetoxymethylester efflux mediated by the multidrug resistance protein and P-glycoprotein” (Biochemistry, 1998)",
  "key": {"[1]": {"substrate": "O=C(O)CN(CC(=O)O)Cc1cc2c(cc1O)Oc1cc(O)c(CN(CC(=O)O)CC(=O)O)cc1C21OC(=O)c2ccccc21", "experiment": "(§1) TP_TRANSPORTER: efflux in GLC4/ADR cells", "type": "functional, cell-based, GLC-4/ADR"}, "[2]": {"substrate": "CC(=O)OCOC(=O)CN(CC(=O)OCOC(C)=O)Cc1c(OC(C)=O)ccc2c1Oc1c(ccc(OC(C)=O)c1CN(CC(=O)OCOC(C)=O)CC(=O)OCOC(C)=O)C21OC(=O)c2ccccc21", "experiment": "as §1", "type": "functional, cell-based, GLC-4/ADR"}},
  "data": [
    {"protein": "Multidrug resistance-associated protein 1 (Homo sapiens) (protein) MALRGFCSADGSDPLWDWNVTWNTSNPDFTKCFQNTVLVWVPCFYLWACFPFYFLYLSRHDRGYIQMTPLNKTKTALGFLLWIVCWADLFYSFWERSRGIFLAPVFLVSPTLLGITMLLATFLIQLERRKGVQSSGIMLTFWLVALVCALAILRSKIMTALKEDAQVDLFRDITFYVYFSLLLIQLVLSCFSDRSPLFSETIHDPNPCPESSASFLSRITFWWITGLIVRGYRQPLEGSDLWSLNKEDTSEQVVPVLVKNWKKECAKTRKQPVKVVYSSKDPAQPKESSKVDANEEVEALIVKSPQKEWNPSLFKVLYKTFGPYFLMSFFFKAIHDLMMFSGPQILKLLIKFVNDTKAPDWQGYFYTVLLFVTACLQTLVLHQYFHICFVSGMRIKTAVIGAVYRKALVITNSARKSSTVGEIVNLMSVDAQRFMDLATYINMIWSAPLQVILALYLLWLNLGPSVLAGVAVMVLMVPVNAVMAMKTKTYQVAHMKSKDNRIKLMNEILNGIKVLKLYAWELAFKDKVLAIRQEELKVLKKSAYLSAVGTFTWVCTPFLVALCTFAVYVTIDENNILDAQTAFVSLALFNILRFPLNILPMVISSIVQASVSLKRLRIFLSHEELEPDSIERRPVKDGGGTNSITVRNATFTWARSDPPTLNGITFSIPEGALVAVVGQVGCGKSSLLSALLAEMDKVEGHVAIKGSVAYVPQQAWIQNDSLRENILFGCQLEEPYYRSVIQACALLPDLEILPSGDRTEIGEKGVNLSGGQKQRVSLARAVYSNADIYLFDDPLSAVDAHVGKHIFENVIGPKGMLKNKTRILVTHSMSYLPQVDVIIVMSGGKISEMGSYQELLARDGAFAEFLRTYASTEQEQDAEENGVTGVSGPGKEAKQMENGMLVTDSAGKQLQRQLSSSSSYSGDISRHHNSTAELQKAEAKKEETWKLMEADKAQTGQVKLSVYWDYMKAIGLFISFLSIFLFMCNHVSALASNYWLSLWTDDPIVNGTQEHTKVRLSVYGALGISQGIAVFGYSMAVSIGGILASRCLHVDLLHSILRSPMSFFERTPSGNLVNRFSKELDTVDSMIPEVIKMFMGSLFNVIGACIVILLATPIAAIIIPPLGLIYFFVQRFYVASSRQLKRLESVSRSPVYSHFNETLLGVSVIRAFEEQERFIHQSDLKVDENQKAYYPSIVANRWLAVRLECVGNCIVLFAALFAVISRHSLSAGLVGLSVSYSLQVTTYLNWLVRMSSEMETNIVAVERLKEYSETEKEAPWQIQETAPPSSWPQVGRVEFRNYCLRYREDLDFVLRHINVTINGGEKVGIVGRTGAGKSSLTLGLFRINESAEGEIIIDGINIAKIGLHDLRFKITIIPQDPVLFSGSLRMNLDPFSQYSDEEVWTSLELAHLKDFVSALPDKLDHECAEGGENLSVGQRQLVCLARALLRKTKILVLDEATAAVDLETDDLIQSTIRTQFEDCTVLTIAHRLNTIMDYTRVIVLDKGEIQEYGAPSDLLQQRGLFYSMAKDAGLV", "values": [
      {"measurement": "Km", "setting": "[1]", "value": 268, "unit": "µM"},
      {"measurement": "Km", "setting": "[2]", "value": 0.05, "unit": "µM"}
    ]}
  ]
}
